What was measured:
[1] = system: ovarian cancer cells SKOV3; assay: SKOV3 ovarian tumor growth and microvessel density in nude mice; assay type: in vivo
Experimental: The MAGP2 siRNA molecule had the following sequence: 5′-[…]-3′ (sense; SEQ ID NO: 1) and 5′-[…]-3′ (antisense; SEQ ID NO: 2). Five stable clones were selected for each group. A total of 5×10^5 cells from each clone were injected subcutaneously into the posterior neck region of 5 nude mice (6 to 8 week-old female nude mice, Charles River, Mass.). After 4 weeks, the mice were sacrificed and the tumors developed from each mouse were removed and weighed. They samples were subsequently fixed in formalin and processed for histological evaluation. MAGP2 expression in tumor tissues was evaluated using a rabbit anti-human MAGP2 antibody and the microvessel density was determined by immunolocalization of CD34+ blood vessels using a goat anti-mouse polyclonal antibody (FIG. 8A). Significant difference in the weight of the tumors between the MAGP2 siRNA and the control group were found as determined by Mann-Witney U test (FIG. 8B). A p value <0.05 was considered as significant.

[2] = target: αvβ3 integrin receptor (human, UniProt P06756 31-1048; P05106 27-788); assay: cell-based or functional assay
[3] = system: A224 cells; assay: A224 ovarian cancer cell adhesion on recMAGP2 coated wells; assay type: cell-based; conditions: plated on recMAGP2 coated wells, relative to control wells; P<0.0005
Excerpt: (§1) Cell Lines and Culture Conditions. A224, UCI107 and OVCA429 ovarian cancer cell lines were maintained in RPMI (Invitrogen Life Technologies Inc, Carlsbad, Calif.) supplemented with 10% fetal bovine serum (Gemini Bio-Products, Woodland, Calif.) and 1% L-glutamine (Invitrogen Life Technologies).
(§2) Screening a serous ovarian cancer cell line panel for MAGP2 expression by qRT-PCR (FIG. 4A) and western blot, as well as αvβ3 receptor status through FACs analysis (FIG. 4B, select cell lines only), facilitated the selection of cell lines amenable for downstream examination. Quantitative RT-PCR was performed as described in Example 1. Among cell lines expressing MAGP2, only the SKOV3 cell line co-expressed the αvβ3 receptor. Two cell lines, A224 and OVCA429, were positive for αvβ3, yet lacked measurable levels of MAGP2. These cell lines were chosen for subsequent analyses involving the recombinant protein along with UCI107, which was negative for both the receptor and MAGP2.
(§3) The effect of recMAGP2 on adhesion was evaluated for A224 and UCI107 cell lines.

[4] = system: UCI107 cells; assay: UCI107 ovarian cancer cell adhesion on recMAGP2; assay type: cell-based; conditions: UCI107 negative for αvβ3 receptor and MAGP2
Excerpt: as §1, §2, §3

[5] = system: OVCA429 cells; assay: OVCA429 cell survival under increasing concentrations of recMAGP2; assay type: cell-based; conditions: 200 ng/ml recMAGP2, 96 hours; P<0.01
Excerpt: as §1
Based on the pathway analysis, αvβ3 mediated signaling was implicated in ovarian tumor cell survival through the stimulation of critical cell-cycle checkpoint regulators. To assess this observation, OVCA429 cells were cultured under increasing concentrations of purified recMAGP2 and harvested at 24-hour intervals.

[6] = system: HUVE cells; assay: HUVE cell motility assay (FluoroBlok insert, recMAGP2 as chemoattractant); assay type: cell-based, human; conditions: 2.5 hours, compared to medium alone, P<0.05
Experimental: Cell motility was evaluated for HUVE cells (5×10^4) by adding them to the top chamber of a BD Falcon HTS FluoroBlok insert with a PET membrane with eight […] pore (BD Biosciences) in […] of medium with 0.2% FBS. The inserts were placed into the bottom chamber wells of a 24-well plate containing medium with increasing concentrations of recombinant MAGP2. After 2.5 hr, cells that migrated through the pores of the membrane to the bottom chamber were stained with calcein […] (Molecular Probes, Eugene, Oreg.) in PBS for 30 min at 37° C. The fluorescence of migrated cells was quantified using a fluorometer set at 485 nm excitation and 530 nm emission. Parallel control experiments were performed using the MAGP2 elution buffer. HUVECs motility was mediated through αvβ3 integrin, cells were pre-treated either with an anti-αvβ3 integrin antibody (Santa Cruz Laboratories #sc-7312) or with an equal amount of IgG (ICL #RS-90G1) for 30 minutes before the addition of 100 ng/ml MAGP2. The motility assay was then performed as described above.
(§4) To determine the effect of recMAGP2 on the HUVE cell motility, recMAGP2 was used as a chemoattractant. […] Similarly, exposing HUVE cells seeded onto Matrigel matrix to reMAGP2 stimulated a 2-fold increase in invasion (P<0.05) (FIG. 5D).

[7] = system: HUVE cells; assay: HUVE cell invasion through Matrigel; assay type: cell-based, human; conditions: cells seeded onto Matrigel matrix; P<0.05
Experimental: (§5) HUVE cell invasion was measured by adding cells (5×10^4) to the top chamber of a BD Falcon HTS FluoroBlok insert with a PET membrane coated with a thin layer of Matrigel. To evaluate the effect of MAGP2 on HUVE cell proliferation, 1,000 HUVECs/well were plated in 8 wells of a 96-well plate in EBM2 with 2.0% FBS. The next day the media were removed and replaced with 0.2% FBS media with elute buffer control or with recombinant MAGP2 protein at 4.5 ng/ml. After 2 days, elute control or MAGP2 was added a second time. Cell number was quantified via MTT assay.
as §4

[8] = system: HUVE cells; assay: HUVE cell survival under low serum (MTT assay); assay type: cell-based, human; conditions: 5 days, P<0.005
Experimental: as §5
In addition to motility and invasion, HUVE cell survival under low serum conditions was prolonged by recMAGP2.

[9] = system: FAK; assay: FAK phosphorylation (tyrosine 407) western blot in HUVE cells; assay type: cell-based, human; conditions: 100 ng/ml, 30 minutes
Experimental: Western Blot Analysis. To assess FAK phosphorylation in HUVE cells, cells were plated on 60 mm^2 dishes treated with 100 ng/ml MAGP2 recombinant protein or elute buffer control. After 30 minutes the cells were washed with 4° C. PBS and lysed in RIPA buffer containing 0.1% SDS and proteinase inhibitors. Western blotting was then performed with 5 μg of protein under denaturing conditions on a 4-12% NuPAGE gel and transferred to a PVDF membrane. The membrane was blocked in 5% nonfat milk for 1 hr at RT, probed with a 1:1000 dilution of anti-FAK[pY^407] rabbit polyclonal 1° antibody (Biosource) for 2 hr at RT. The blot was washed 3 times for 5 min with TBST and probed with a 1:2000 dilution of goat anti-rabbit HRP conjugated 2° antibody (Amersham) for 1 hr at RT. The blot was washed 3 times for 10 min with TBST and bands were detected via chemiluminscence using an ECL kit (Amersham).
Since FAK is a mediator of αvβ3 signaling, the phosphorylation status of FAK in recMAGP2 treated cells was confirmed. Using a phosphorylation specific antibody recognizing tyrosine 407, a western blot comparing phospho-FAK to total FAK was completed for both treated and untreated HUVE cell isolates.

[10] = system: HUVE cells; assay: Ca2+ oscillation in HUVE cells (fluo-4/AM, confocal microscope); assay type: cell-based, human
Experimental: To identify the mechanism underlying the stimulation of FAK by recMAGP2, Ca^2+ oscillation was assessed in treated HUVE cells. […] This may account in part for the enhanced motility and survival of HUVE cells as described in the pathway analysis.

[11] = system: HUVE cells; assay: Affymetrix U133 Plus 2.0 microarray of recMAGP2 treated HUVE cells; assay type: cell-based, human; conditions: P<0.01 and fold-change ≧1.5; treated n=3 vs untreated n=3
Excerpt: The marked effect of recMAGP2 on HUVE cell behavior indicated a change in cellular regulation had taken place possibly affecting gene expression. To explore the consequences of recMAGP2 induced signaling, Affymetrix® U133 Plus 2.0 microarrays were completed for a series of recMAGP2 treated (n=3) and untreated (n=3) HUVE cell isolates. A total of 274 probe sets were identified for pathway analysis in cells exposed to recMAGP2 (P<0.01 and fold-change ≧1.5) (FIG. 6A). […] Deregulation of these genes may lead to a reduction in vessel integrity permitting endothelial cell migration and neovascularization.

Chain of αvβ3 integrin receptor (P06756 31-1048, chain 1 of 2): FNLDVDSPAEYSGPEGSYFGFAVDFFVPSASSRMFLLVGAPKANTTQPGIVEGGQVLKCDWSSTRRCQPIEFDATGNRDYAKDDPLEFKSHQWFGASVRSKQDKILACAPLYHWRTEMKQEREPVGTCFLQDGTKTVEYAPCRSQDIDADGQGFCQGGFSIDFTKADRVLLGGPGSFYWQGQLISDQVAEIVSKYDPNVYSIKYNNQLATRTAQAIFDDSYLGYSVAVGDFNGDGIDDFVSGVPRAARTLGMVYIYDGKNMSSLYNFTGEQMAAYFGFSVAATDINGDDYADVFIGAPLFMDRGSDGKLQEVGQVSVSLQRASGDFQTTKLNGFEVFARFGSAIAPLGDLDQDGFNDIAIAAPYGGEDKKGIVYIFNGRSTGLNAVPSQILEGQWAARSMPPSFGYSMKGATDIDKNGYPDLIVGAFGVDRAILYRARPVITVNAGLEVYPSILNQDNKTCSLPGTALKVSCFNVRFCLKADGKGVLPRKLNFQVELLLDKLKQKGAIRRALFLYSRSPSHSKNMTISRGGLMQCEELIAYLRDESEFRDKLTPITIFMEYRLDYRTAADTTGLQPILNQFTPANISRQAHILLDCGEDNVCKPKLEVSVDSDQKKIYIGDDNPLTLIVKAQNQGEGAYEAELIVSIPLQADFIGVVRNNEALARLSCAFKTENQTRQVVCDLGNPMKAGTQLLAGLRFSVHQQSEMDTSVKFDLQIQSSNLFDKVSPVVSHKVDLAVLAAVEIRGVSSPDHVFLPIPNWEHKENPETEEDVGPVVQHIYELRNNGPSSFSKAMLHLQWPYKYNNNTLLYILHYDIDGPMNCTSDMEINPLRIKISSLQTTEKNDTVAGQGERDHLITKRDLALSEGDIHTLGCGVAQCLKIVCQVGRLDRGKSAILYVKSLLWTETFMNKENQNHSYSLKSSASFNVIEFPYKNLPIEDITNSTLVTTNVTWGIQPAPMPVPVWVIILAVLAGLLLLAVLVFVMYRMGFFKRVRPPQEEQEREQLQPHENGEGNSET
Chain of αvβ3 integrin receptor (P05106 27-788, chain 2 of 2): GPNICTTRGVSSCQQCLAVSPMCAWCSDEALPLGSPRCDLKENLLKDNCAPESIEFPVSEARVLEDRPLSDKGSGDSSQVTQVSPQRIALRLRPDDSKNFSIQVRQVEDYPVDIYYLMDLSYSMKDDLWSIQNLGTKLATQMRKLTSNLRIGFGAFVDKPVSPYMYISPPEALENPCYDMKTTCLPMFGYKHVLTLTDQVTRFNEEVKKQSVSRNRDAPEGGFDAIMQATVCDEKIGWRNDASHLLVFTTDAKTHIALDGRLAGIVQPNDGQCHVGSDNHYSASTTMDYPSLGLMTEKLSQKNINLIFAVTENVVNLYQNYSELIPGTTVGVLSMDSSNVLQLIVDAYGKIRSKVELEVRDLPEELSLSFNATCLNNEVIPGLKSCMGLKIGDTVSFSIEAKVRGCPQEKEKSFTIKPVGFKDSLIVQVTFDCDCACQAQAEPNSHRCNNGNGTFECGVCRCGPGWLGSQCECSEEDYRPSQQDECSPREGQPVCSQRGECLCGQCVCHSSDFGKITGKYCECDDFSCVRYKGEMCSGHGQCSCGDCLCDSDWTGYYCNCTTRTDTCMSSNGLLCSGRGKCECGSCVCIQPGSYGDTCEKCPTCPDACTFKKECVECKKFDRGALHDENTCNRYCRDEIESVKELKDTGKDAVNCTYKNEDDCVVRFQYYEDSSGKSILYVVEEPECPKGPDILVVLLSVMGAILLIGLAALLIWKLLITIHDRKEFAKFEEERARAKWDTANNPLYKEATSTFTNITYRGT

| Molecule | weight of the tumors ([1]; SKOV3 stably transfected, subcutaneous, nude mice, 4 weeks, vs empty vector, Mann-Witney U test p<0.05) | CD34 (microvessel density) in tumor tissues ([1]; immunolocalization of CD34+ blood vessels, FIG. 8A) | MAGP2 expression in tumor tissues ([1]; immunostaining, FIG. 8A) | adhesion of HUVE cells plated on recMAGP2 [2] [fold] | A224 cell adhesion [3] | UCI107 cell adhesion [4] | OVCA429 cell survival [5] | HUVE cell motility [6] | increase in HUVE cell invasion [7] [fold] | HUVE cell survival under low serum conditions [8] | phosphorylated FAK (tyrosine 407) versus total FAK [9] | [Ca2+]I levels ([10]; HUVE cells loaded with fluo-4/AM) | [Ca2+]I oscillation frequency ([10]; individual HUVE cells) [s/cycle] | probe sets identified in cells exposed to recMAGP2 [11] |
| --- | --- | --- | --- | --- | --- | --- | --- | --- | --- | --- | --- | --- | --- | --- |
| MAGP2 siRNA: siRNA 5′-ACCGGTTAAACAATGCATTCAT-3′ (sense; SEQ ID NO: 1) and 5′-ATGAATGCATTGTTTAACCGGC-3′ (antisense; SEQ ID NO: 2) (listed as DNA, chemistry not fully specified) | significantly decrease the weight | decreased | decreased MAGP2 expression | – | – | – | – | – | – | – | – | – | – | – |
| purified recombinant MAGP2 (microfibril associated glycoprotein 2) (ligand, UniProt Q13361 22-173, looked up) IPLGVNSQRGDDVTQATPETFTEDPNLVNDPATDETVLAVLADIAPSTDDLASLSEKNTTAECWDEKFTCTRLYSVHRPVKQCIHQLCFTSLRRMYIVNKEICSRLVCKEHEAMKDELCRQMAGLPPRRLRRSNYFRLPPCENVDLQRPNGL | – | – | – | 2.5 | increase in adhesion | only a modest increase in adhesion at high concentrations | significant difference in survival | increased the motility of the cells in a dose dependent manner | 2 | prolonged | increase in phosphorylated FAK | immediate increase | 100 | 274 |
